Reference: the RNAGym collection of RNA variant scans (doi:10.7554/elife.80360)

B1: HDV Ribozyme (parent)
chain: GGCCGGCAUGGUCCCAGCCUCCUCGCUGGCGCCGGCUGGGCAACAUUCCGAGGGGACCGUCCCCUCGGUAAUGGCGAAUGGGACCCA

Variants of: B1
Assay: self-cleavage, relative activity (ratio to wild type); higher = more cleavage; co-transcriptional

Variant | self-cleavage
C14A C84U | 0.262
C14A C84A | 0.458
C13U U20A | 0.0831
C14A G80C | 0.104
C13U U23G | 0.287
C14A U65C | 0.864
C14U C58A | 1.13
C14A U23C | 0.997
C13U G25A | 0.122
C13U U46G | 0.356
C14G G53U | 0.802
C14U A45G | 0.988
C14G U20G | 0.151
C14A G82C | 0.172
C14G C32A | 0.0554
C14G C32G | 0
C14A G73C | 0.104
C14U A77U | 0.573
C14U C75A | 0.208
C14A C18A | 0
C14A C49A | 0.782
C14U C32U | 0.86
C14G C30G | 0.0692
C14A A78G | 0.0519

Variant | self-cleavage
C14A A78U | 0.0791
C14A G53C | 0.665
C14U C22G | 0.155
C14U C36U | 0.96
C14G A43G | 0.0978
C14G C48U | 0.831
C14G C48A | 0.723
C14G G74A | 0.199
C14A G40U | 0.261
C14A G40C | 0.185
C14A G55A | 0.814
C14A A71C | 0.166
C14G C61G | 0.782
C13U G55C | 0.658
C14G A51G | 0.475
C14G C66G | 0.391
C14G U79C | 0.173
C14A C61G | 0.997
C14G G28U | 0.107
C14A U60G | 0.684
C14A U60C | 0.485
C14G G38A | 0.0831
C14A C66U | 1.03
C14G C75A | 0.111

Variant | self-cleavage
C14G A78U | 0.185
C13U C64U | 0.554
C13U G29C | 0.0332
C13U G29A | 0.104
C14A A87C | 0.643
C14A C24A | 0.383
C14A C24G | 0.146
C14G U65G | 0.665
C14A U72C | 0.378
C14U C57U | 0.878
C14U C57G | 0.787
C14G C26G | 0.692
C14G C26A | 0.639
C14U C21G | 0.125
C14A A77U | 0.237
C13U G54U | 0.578
C13U G54C | 0.623
C13U U65A | 0.508
C14G G80U | 0.261
C14A C36U | 0.259
C14A C19A | 0.0639
C13U G38C | 0.0554
C14A C30U | 0.143
C13U C36G | 0.0723

Variant | self-cleavage
C13U C36A | 0.132
C14G U23A | 0.68
C14G A42C | 0.0923
C13U G68U | 0.614
C13U G68C | 0.511
C13U G80A | 0.31
C13U U47A | 0.646
C14A G17C | 0.123
C14U A42G | 0.959
C14U C48U | 1.02
C14A A70C | 0.467
C13U C57A | 0.831
C14U C18U | 0.591
C14G A83U | 0.289
C14G C58A | 0.639
C14A G34A | 0.185
C13U C48U | 0.642
C14G G73C | 0.0504
C14G G73A | 0.222
C14G C18A | 0.17
C14G C18U | 0.115
C14G C86U | 1.07
C13U G74U | 0.0852
C13U G74A | 0.131

Variant | self-cleavage
C14G C44U | 0.208
C14A U69A | 0.997
C14G G59A | 0.962
C14U A87C | 1.12
C14U A87U | 1.08
C14G U27G | 1.14
C14G U27C | 0.727
C14A C32G | 0.0573
C14U C61G | 1.08
C14G U37C | 0.646
C14G U37A | 0.0489
C13U C62G | 0.554
C14G G50C | 0.302
C14U C15U | 0.665
C13U G50C | 0.636
C13U C86U | 1.1
C14A U20C | 0.111
C14A U46G | 0.525
C14A C26U | 1.07
C14U C26G | 0.76
C14U C26A | 1.08
C14G G17U | 0.323
C14G G25A | 0.0437
C13U C84U | 0.361

Variant | self-cleavage
C14A G74C | 0.185
C14U C66U | 1.25
C14G A56U | 0.969
C14G A56G | 0.646
C14U A51C | 1.19
C13U G81A | 0.189
C14A G67C | 0.554
C14A G54A | 0.751
C13U G17C | 0.217
C14G U60A | 0.831
C14G C36U | 0.375
C14A C58A | 1.17
C14A U27A | 0.739
C14G G81A | 0.957
C14G G81C | 0.974
C14U A16G | 1.21
C13U G76A | 0.743
C14G G67A | 0.453
C14G U69G | 0.604
C14G C22G | 0
C14G C22A | 0
C13U G28U | 0.0615
C13U C49A | 0.727
C14G C21G | 0.0449

Variant | self-cleavage
C14A A16U | 0.923
C14A C64U | 0.743
C14A A45G | 0.703
C14A C22G | 0.0573
C14U C19A | 0.0545
C14G U47A | 0
C14U C44G | 0.7
C14G A16C | 0.0875
C14G A16U | 0.791
C14G C64G | 0.485
C14G A45U | 0.237
C14G C24G | 0
C13U G53C | 0.831
C14G C62G | 0.0831
C14U A43G | 0.643
C13U U60A | 0.554
C14U C85U | 0.831
C14U C85G | 0.712
C13U U27A | 1.29
C13U C58U | 0.403
C14A G31C | 0.0678
C14U C30A | 0.675
C14U C30U | 0.489
